In publication PMC6007000 (Nature genetics, 2017):
Non-standard residues stand in square brackets, D forms with d. Residues, ends and D or L forms follow the SMILES beside them. No end group written: not given here. Lys(Me3) = C[N+](C)(C)CCCC[C@H](N)C(=O)O

Key:
[1] = biological target: BAF45c (residues 254–368), PHD1-2 region of DPF3 (Homo sapiens, UniProt Q92784); test: Isothermal titration calorimetry of H3 tail peptides with DPF3; assay type: binding
[2] = biological target: PHD1-2 region of human BAF45c (DPF3), residues 254–368 (human) (UniProt Q92784); test: ITC
Sequence of PHD1-2 region of human BAF45c (DPF3), residues 254–368 (human) (Q92784 254-368): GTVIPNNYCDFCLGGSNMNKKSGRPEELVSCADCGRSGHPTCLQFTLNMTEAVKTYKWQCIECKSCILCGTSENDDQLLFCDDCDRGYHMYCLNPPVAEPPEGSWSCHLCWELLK

Sequence of BAF45c (residues 254–368), PHD1-2 region of DPF3 (Q92784 254-368): as above

Compound | Kd [1] | Kd [2]
CC(=O)NCCCC[C@H](NC(=O)CNC(=O)CNC(=O)[C@@H](NC(=O)[C@H](CO)NC(=O)[C@H](CCCCN)NC(=O)[C@H](CCCNC(=N)N)NC(=O)[C@H](C)NC(=O)[C@H](CCCNC(=N)N)NC(=O)[C@@H](NC(=O)[C@H](CCC(N)=O)NC(=O)[C@H](CCCC[N+](C)(C)C)NC(=O)[C@@H](NC(=O)[C@H](CCCNC(=N)N)NC(=O)[C@H](C)N)[C@@H](C)O)[C@@H](C)O)[C@@H](C)O)C(=O)N[C@@H](C)C(=O)N1CCC[C@H]1C(=O)N[C@@H](CCCNC(=N)N)C(=O)N[C@@H](CCCCN)C(=O)O [H3K4me3/K14ac] (H-ART[Lys(Me3)]QTRARKSTGGK(Ac)APRK-OH) | 115 µM | 
ARTKQTRARKSTGGK(Ac)APRK [H3K4me0/K14ac] | 7.8 µM | 
H3K4me1K14Ac peptide (H3 tail, H3K4me1 and H3K14ac) |  | 20 µM
H3K4me3K14Ac peptide (H3 tail, H3K4me3 and H3K14ac) |  | 115 µM
H3K14Ac peptide (H3 tail, H3K4me0 and H3K14ac) |  | 7.8 µM
